{
  "source": "paper PMC8355190",
  "molecular_target": "PKM2 (human (endogenous in H1650)) (UniProt P14618)",
  "test": "cross-linking",
  "data": [
    {"substance": "PKM2, P14618 1-531 (enzyme; other documents disagree on this pair)", "values": [
      {"measurement": "stoichiometry N", "value": 2}
    ]}
  ]
}
